Source: patent US20240092901A1

Legend:
Assay in all cases: ELISA
[1] = target: cynomolgus Ror2 (cynomolgus)
[2] = target: human Ror2 (receptor tyrosine kinase-like orphan receptor 2) (human) (UniProt Q01974)
mouse Ror2 (mouse) = mouse Ror2 (mouse) (UniProt Q9Z138)
Chain of mouse Ror2 (mouse) (Q9Z138 34-403 limits assumed): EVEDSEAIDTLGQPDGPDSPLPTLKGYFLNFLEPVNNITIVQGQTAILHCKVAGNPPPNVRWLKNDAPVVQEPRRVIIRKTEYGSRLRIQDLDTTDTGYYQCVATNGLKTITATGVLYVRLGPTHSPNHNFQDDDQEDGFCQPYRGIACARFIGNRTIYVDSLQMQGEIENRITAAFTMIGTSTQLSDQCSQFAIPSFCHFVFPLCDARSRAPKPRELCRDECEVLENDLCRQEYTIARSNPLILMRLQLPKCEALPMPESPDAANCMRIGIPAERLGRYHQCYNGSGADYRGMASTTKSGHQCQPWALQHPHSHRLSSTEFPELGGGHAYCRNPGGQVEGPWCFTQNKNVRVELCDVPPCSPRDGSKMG

Chain of human Ror2 (receptor tyrosine kinase-like orphan receptor 2) (human) (Q01974 34-403 limits assumed): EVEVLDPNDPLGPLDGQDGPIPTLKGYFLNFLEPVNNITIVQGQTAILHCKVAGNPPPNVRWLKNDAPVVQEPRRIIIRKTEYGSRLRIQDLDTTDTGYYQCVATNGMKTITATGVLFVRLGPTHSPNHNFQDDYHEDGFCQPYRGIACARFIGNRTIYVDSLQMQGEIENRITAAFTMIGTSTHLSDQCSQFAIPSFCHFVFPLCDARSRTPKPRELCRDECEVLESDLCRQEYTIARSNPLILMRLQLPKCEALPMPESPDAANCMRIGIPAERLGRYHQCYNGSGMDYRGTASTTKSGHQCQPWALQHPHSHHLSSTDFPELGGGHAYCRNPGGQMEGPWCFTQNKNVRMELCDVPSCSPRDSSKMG

B1: conditionally active antibody BAP048 (antibody, from a related filing, V domains shown)
VH: EVQLVQSGAEVKKPGESLRISCKGSGYTFTEYTMHWVRQAPGQGLEWMGGINTNNGGTGYNQKFKGRVTISADKSISTAYLQWSSLKASDTAMYYCAHGSLYSYGNSYFDYWGQGTLVTVSS
VL: AIQLTQSPSSLSASVGDRVTITCSATSSVSYMHWYLQKPGQSPQLLIYGTSNLASGVPDRFSGSGSGTDFTLKISRVEAEDVGVYYCQQRSSYPFTFGQGTKVEIK
Q: Which results are given for B1?
A: EC50 [1]: 0.327 µg/mL; EC50 [2]: 0.201 µg/mL; EC50 (mouse Ror2 (mouse)): 7.65 µg/mL
